Experimental data: US20240148916A1, “BIVALENT FIBROBLAST ACTIVATION PROTEIN LIGANDS FOR TARGETED DELIVERY APPLICATIONS” (priority 2021, published 2024)
*1 amine or outer side, *2 acyl side, *3 side chain or, on linkers, in order; H or OH if unused. Where a SMILES comes first, the peptide text is derived from it. The star is where a group is joined. Fluorescein(5-Mal) = O=C1OC2(c3ccc(O)cc3Oc3cc(O)ccc32)c2ccc(N3C(=O)CC(*)C3=O)cc21; X1 = N#C[C@@H]1CC(F)(F)CN1C(=O)CNC(=O)c1ccnc2c(N*)cccc12; Suc = O=C(CCC(=O)[*:2])[*:1]

Tests used:
in vivo = experiment: in vivo; design: species or system mice; details: mouse; for tissue to tissue ratio at 1 h / tissue to tissue ratio at 4 h / tissue to tissue ratio at 17 h / tissue to tissue ratio at 24 h: female, athymic BALB/C nu/nu, iv, 250 nmol/kg, total radioactivity
Method: Upon thawing, HT-1080.hFAP positive cells and HT-1080.wt cells were kept in culture in DMEM medium supplemented with fetal bovine serum (10%, FBS) and Antibiotic-Antimycotic (1%, AA) at 37° C. and 5% CO2. For passaging, cells were detached using Trypsin-EDTA 0.05% when reaching 90% confluence and re-seeded at a dilution of 1:4. Cells were grown to 80% confluence and detached with Trypsin-EDTA 0.05%. Cells were re-suspended in cold HBSS medium to a final concentration of 5×10^7 cells/mL. Aliquots of 5×10^6 cells (100 μL of suspension) were injected subcutaneously in the flank of female athymic BALB/C nu/nu mice (6-8 weeks of age). HT-1080.hFAP tumour cells were xenografted in the right flank and HT-1080.wt tumour cells were xenografted in the left flank as described above and allowed to grow to an average volume of 1.2±0.2 mL. […] Mice were sacrificed 1 h, 4 h, 17 h and 24 h after the injection by CO2 asphyxiation and organs extracted, weighted and radioactivity measured with a Packard Cobra γ-counter. Values are expressed as % ID/g±SD (Figure C). Food and water were given ad libitum during that period.

hFAP [1] = molecular target: T1, hFAP (Homo sapiens, UniProt Q12884); experiment: Gel filtration co-elution experiment on hFAP; type: binding; details: PD-10 column, hFAP 2 μM
T1 sequence (Q12884 1-760): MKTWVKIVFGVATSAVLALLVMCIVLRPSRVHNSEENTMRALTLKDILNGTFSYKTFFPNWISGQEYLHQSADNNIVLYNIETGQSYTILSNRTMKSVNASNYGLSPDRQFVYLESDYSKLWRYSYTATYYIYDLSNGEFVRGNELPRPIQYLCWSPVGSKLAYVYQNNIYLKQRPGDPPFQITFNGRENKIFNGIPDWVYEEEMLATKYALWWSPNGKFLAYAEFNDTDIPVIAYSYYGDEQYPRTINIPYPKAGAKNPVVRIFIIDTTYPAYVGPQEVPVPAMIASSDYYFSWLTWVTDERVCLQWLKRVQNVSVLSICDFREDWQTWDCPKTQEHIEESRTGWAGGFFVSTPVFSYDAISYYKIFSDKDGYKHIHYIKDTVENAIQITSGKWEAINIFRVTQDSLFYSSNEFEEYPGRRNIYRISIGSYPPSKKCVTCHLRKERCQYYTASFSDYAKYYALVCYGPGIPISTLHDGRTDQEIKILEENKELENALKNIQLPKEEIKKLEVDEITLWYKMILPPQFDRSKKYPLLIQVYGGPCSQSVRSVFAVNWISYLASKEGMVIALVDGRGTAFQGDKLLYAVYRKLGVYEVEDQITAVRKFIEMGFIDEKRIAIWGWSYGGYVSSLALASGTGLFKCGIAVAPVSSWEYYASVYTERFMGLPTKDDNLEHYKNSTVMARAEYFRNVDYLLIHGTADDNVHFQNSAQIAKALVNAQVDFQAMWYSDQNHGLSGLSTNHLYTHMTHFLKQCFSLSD
Method: The final solution was loaded on the column and flushed with running buffer. Fractions of the flow-through (200 μL) were collected in test tubes and the radioactivity measured with a Packard Cobra γ-counter. […] The final solution was loaded on the column and flushed with running buffer. Fractions of the flow-through (200 μL) were collected in test tubes and the radioactivity measured with a Packard Cobra γ-counter.

hFAP [2] = molecular target: T1, hFAP; experiment: ELISA against immobilized hFAP; type: binding; details: biotinylated hFAP immobilized on StreptaWell
Method: Recombinant human FAP (1 μM, 5 mL) was biotinylated with Biotin-LC-NHS (100 eq.) by incubation at room temperature under gentle agitation in 50 mM HEPES, 100 mM NaCl buffer (pH=7.4). After 2 hours biotinylated hFAP was purified via PD-10 column and dialyzed overnight in HEPES buffer. The following day a StreptaWell™ (transparent 96-well) was incubated with biotinylated hFAP (100 nM, 100 μL/well) for 1 hour at room temperature and washed with PBS (3×, 200 μL/well). The protein was blocked by adding 4% Milk in PBS (200 μL/well, 30 min at RT) and then washed with PBS (3×, 200 μL/well). Immobilized hFAP was incubated for 30 minutes in the dark with serial dilutions of ESV6-Asp-Lys-Asp-Cys-Fluorescein and Bi-ESV6-Asp-Lys-Asp-Cys-Fluorescein (17), then washed with PBS (3×, 200 μL/well). A solution of rabbit αFITC antibody (1 μg/mL, Bio-Rad 4510-7804) in 2% Milk-PBS was added to each well (100 μL/well) and incubated for additional 30 minutes in the dark. The resulting complex was washed with PBS (3×, 200 μL/well) and incubated for additional 30 minutes of protein A-HRP (1 μg/mL in 2% Milk-PBS, 100 μL/well). Each well was washed with PBS 0.1% Tween (3×, 200 μL/well) and with PBS (3×, 200 μL/well). The substrate (TMB—3,3′,5,5′-Tetramethylbenzidine) was added (100 μL/well) and developed in the dark for 2 minutes. […] The absorbance was measured at 450 nm (ref 620-650 nm) with a TECAN spark

[3] = Tumour-to-organ ratios: HT-1080.hFAP
[4] = Tumour-to-organ ratios: Intestine

N#C[C@@H]1CC(F)(F)CN1C(=O)CNC(=O)c1ccnc2c(NC(=O)CCC(=O)NCCNC(=O)CCC(C(=O)O)N3CCN(CC(=O)O)CCN(CC(=O)O)CCN(CC(=O)O)CC3)cccc12 (single isomer, unassigned) [^177Lu-ESV6-DOTAGA, metal not drawn]
tissue to tissue ratio at 1 h (in vivo; Tumour-to-organ ratios: Blood): 43.1 ± 17.2
tissue to tissue ratio at 4 h (in vivo; Tumour-to-organ ratios: Blood): 113 ± 49.8
tissue to tissue ratio at 17 h (in vivo; Tumour-to-organ ratios: Blood): 236 ± 190
tissue to tissue ratio at 24 h (in vivo; Tumour-to-organ ratios: Blood): 855 ± 368
tissue to tissue ratio at 1 h (in vivo; [3]): 34.9 ± 2.79
tissue to tissue ratio at 4 h (in vivo; [3]): 26.8 ± 6.42
tissue to tissue ratio at 17 h (in vivo; [3]): 32.6 ± 17.4
tissue to tissue ratio at 24 h (in vivo; [3]): 13.3 ± 5.95
tissue to tissue ratio at 1 h (in vivo; Tumour-to-organ ratios: Heart): 135 ± 19.8
tissue to tissue ratio at 4 h (in vivo; Tumour-to-organ ratios: Heart): 208 ± 113
tissue to tissue ratio at 17 h (in vivo; Tumour-to-organ ratios: Heart): 354 ± 231
tissue to tissue ratio at 24 h (in vivo; Tumour-to-organ ratios: Heart): 169 ± 172
tissue to tissue ratio at 1 h (in vivo; [4]): 41 ± 41.8
tissue to tissue ratio at 4 h (in vivo; [4]): 39.8 ± 11.4
tissue to tissue ratio at 17 h (in vivo; [4]): 163 ± 94.9
tissue to tissue ratio at 24 h (in vivo; [4]): 77 ± 58.6
tissue to tissue ratio at 1 h (in vivo; Tumour-to-organ ratios: Kidney): 9.16 ± 0.88
tissue to tissue ratio at 4 h (in vivo; Tumour-to-organ ratios: Kidney): 8.25 ± 1.45
tissue to tissue ratio at 17 h (in vivo; Tumour-to-organ ratios: Kidney): 5.72 ± 2.04
tissue to tissue ratio at 24 h (in vivo; Tumour-to-organ ratios: Kidney): 11.9 ± 16
tissue to tissue ratio at 1 h (in vivo; Tumour-to-organ ratios: Liver): 5.89 ± 0.82
tissue to tissue ratio at 4 h (in vivo; Tumour-to-organ ratios: Liver): 21.6 ± 2.99
tissue to tissue ratio at 17 h (in vivo; Tumour-to-organ ratios: Liver): 40.3 ± 13.3
tissue to tissue ratio at 24 h (in vivo; Tumour-to-organ ratios: Liver): 30.4 ± 6.7
tissue to tissue ratio at 1 h (in vivo; Tumour-to-organ ratios: Lung): 37.9 ± 2.59
tissue to tissue ratio at 4 h (in vivo; Tumour-to-organ ratios: Lung): 90.3 ± 29.3
tissue to tissue ratio at 17 h (in vivo; Tumour-to-organ ratios: Lung): 150 ± 88.5
tissue to tissue ratio at 24 h (in vivo; Tumour-to-organ ratios: Lung): 140 ± 83
tissue to tissue ratio at 1 h (in vivo; Tumour-to-organ ratios: Spleen): 109 ± 8.98
tissue to tissue ratio at 4 h (in vivo; Tumour-to-organ ratios: Spleen): 169 ± 67.8
tissue to tissue ratio at 17 h (in vivo; Tumour-to-organ ratios: Spleen): 200 ± 45.7
tissue to tissue ratio at 24 h (in vivo; Tumour-to-organ ratios: Spleen): 103 ± 66.7
tissue to tissue ratio at 1 h (in vivo; Tumour-to-organ ratios: Tail): 31.2 ± 8.39
tissue to tissue ratio at 4 h (in vivo; Tumour-to-organ ratios: Tail): 10.4 ± 7.6
tissue to tissue ratio at 17 h (in vivo; Tumour-to-organ ratios: Tail): 4.74 ± 5.11
tissue to tissue ratio at 24 h (in vivo; Tumour-to-organ ratios: Tail): 8.77 ± 2.3
Complex formation with hFAP (co-elution) (hFAP [1]): form a stable complex

N#C[C@@H]1CC(F)(F)CN1C(=O)CNC(=O)c1ccnc2c(NC(=O)CCC(=O)N[C@@H](CC(=O)O)C(=O)N[C@@H](CCCCN)C(=O)N[C@@H](CC(=O)O)C(=O)N[C@@H](CSC3CC(=O)N(c4ccc5c(c4)C(=O)OC54c5ccc(O)cc5Oc5cc(O)ccc54)C3=O)C(=O)O)cccc12 (stereo partly drawn) [ESV6-Asp-Lys-Asp-Cys-Fluorescein] ({X1-Suc}-DKDC(Fluorescein(5-Mal))-OH)
Kd (hFAP [2]): 0.0323 µM

N#C[C@@H]1CC(F)(F)CN1C(=O)CNC(=O)c1ccnc2c(NC(=O)CCC(=O)NCCCC[C@H](NC(=O)CCC(=O)Nc3cccc4c(C(=O)NCC(=O)N5CC(F)(F)C[C@H]5C#N)ccnc34)C(=O)NCCNC(=O)CCC(C(=O)O)N3CCN(CC(=O)O)CCN(CC(=O)O)CCN(CC(=O)O)CC3)cccc12 (stereo partly shown) [^177Lu-Bi-ESV6-DOTAGA, metal not drawn]
tissue to tissue ratio at 1 h (in vivo; Tumour-to-organ ratios: Blood): 32.8 ± 8.97
tissue to tissue ratio at 4 h (in vivo; Tumour-to-organ ratios: Blood): 62.8 ± 11.2
tissue to tissue ratio at 17 h (in vivo; Tumour-to-organ ratios: Blood): 95.4 ± 19.1
tissue to tissue ratio at 24 h (in vivo; Tumour-to-organ ratios: Blood): 178 ± 57.6
tissue to tissue ratio at 1 h (in vivo; [3]): 23 ± 8.09
tissue to tissue ratio at 4 h (in vivo; [3]): 25 ± 1.27
tissue to tissue ratio at 17 h (in vivo; [3]): 27.2 ± 11.3
tissue to tissue ratio at 24 h (in vivo; [3]): 29.7 ± 13.8
tissue to tissue ratio at 1 h (in vivo; Tumour-to-organ ratios: Heart): 52.2 ± 10.8
tissue to tissue ratio at 4 h (in vivo; Tumour-to-organ ratios: Heart): 125 ± 17.1
tissue to tissue ratio at 17 h (in vivo; Tumour-to-organ ratios: Heart): 148 ± 12.9
tissue to tissue ratio at 24 h (in vivo; Tumour-to-organ ratios: Heart): 201 ± 59.5
tissue to tissue ratio at 1 h (in vivo; [4]): 59.6 ± 6.48
tissue to tissue ratio at 4 h (in vivo; [4]): 82.4 ± 31.2
tissue to tissue ratio at 17 h (in vivo; [4]): 111 ± 32.1
tissue to tissue ratio at 24 h (in vivo; [4]): 104 ± 60.6
tissue to tissue ratio at 1 h (in vivo; Tumour-to-organ ratios: Kidney): 7.19 ± 2.29
tissue to tissue ratio at 4 h (in vivo; Tumour-to-organ ratios: Kidney): 8.61 ± 0.84
tissue to tissue ratio at 17 h (in vivo; Tumour-to-organ ratios: Kidney): 8.4 ± 1.31
tissue to tissue ratio at 24 h (in vivo; Tumour-to-organ ratios: Kidney): 9.9 ± 2.38
tissue to tissue ratio at 1 h (in vivo; Tumour-to-organ ratios: Liver): 18.8 ± 5.31
tissue to tissue ratio at 4 h (in vivo; Tumour-to-organ ratios: Liver): 29.9 ± 4.12
tissue to tissue ratio at 17 h (in vivo; Tumour-to-organ ratios: Liver): 27.9 ± 2.25
tissue to tissue ratio at 24 h (in vivo; Tumour-to-organ ratios: Liver): 30.6 ± 8
tissue to tissue ratio at 1 h (in vivo; Tumour-to-organ ratios: Lung): 19.5 ± 4.09
tissue to tissue ratio at 4 h (in vivo; Tumour-to-organ ratios: Lung): 65.5 ± 10.5
tissue to tissue ratio at 17 h (in vivo; Tumour-to-organ ratios: Lung): 124 ± 74.7
tissue to tissue ratio at 24 h (in vivo; Tumour-to-organ ratios: Lung): 98.7 ± 18.9
tissue to tissue ratio at 1 h (in vivo; Tumour-to-organ ratios: Spleen): 42.1 ± 17.7
tissue to tissue ratio at 4 h (in vivo; Tumour-to-organ ratios: Spleen): 73.8 ± 10.3
tissue to tissue ratio at 17 h (in vivo; Tumour-to-organ ratios: Spleen): 68.2 ± 11.7
tissue to tissue ratio at 24 h (in vivo; Tumour-to-organ ratios: Spleen): 93.6 ± 64.5
tissue to tissue ratio at 1 h (in vivo; Tumour-to-organ ratios: Tail): 10.4 ± 1.72
tissue to tissue ratio at 4 h (in vivo; Tumour-to-organ ratios: Tail): 9.68 ± 4.14
tissue to tissue ratio at 17 h (in vivo; Tumour-to-organ ratios: Tail): 14 ± 8.08
tissue to tissue ratio at 24 h (in vivo; Tumour-to-organ ratios: Tail): 15.5 ± 7.98
Kidney uptake (in vivo): transient and becomes negligible 24 hours after injection
Complex formation with hFAP (co-elution) (hFAP [1]): form a stable complex
